Substrate in data set [1]: PET
In words: Proxy for plastic degradation [Absorbance @ 240nm].

Substrate in data set [2]: PBSA
As to the kind of experiment: Proxy for plastic degradation [kcat/Km (catalytic efficiency)] (mM⁻¹s⁻¹). The following applies: pH 8.2.

Substrate in data set [3]: PET
As to the kind of experiment: Proxy for plastic degradation [Released Products (MHET,BHET, TPA)]. The note with it: pH 8.

Experimental findings from the PETadex activity labels are described below.

Numbering of substitutions follows the chain as printed.

B1: unnamed (protein)
chain: MFQRVWALTAALMLMLSLGATSSHAAQNPHERGPDPSNSYIEQARGSYSVSQRSISRLGSDGFRDGTMYYPTSTADGRFGVVAISPGYTASESTIAWLGPRLASFGFVVVTINTDSRYDQPRQRATQLHAALDHAIGDSVVGPRIDTSRQAVMGHSMGGGGALQAAEERDEIRAAVPLTPWNLKKGWSGVDAATLVIGAENDAIAPVRSHSIPFYESLTNAERRAYLELRREGHFAPNSSNTLIAKYSVSWLKRYVDNDLRYDQFIDPGPRTGITTGVSDYRLG
For B1, the “Proxy for plastic degradation” value was 0 µM in data set [1] (pH 8, 0 h); 0.012 AU in data set [1] (pH 8, 10 °C); 0.016 AU in data set [1] (pH 8, 28 °C); 0.045 AU in data set [1] (pH 8, 37 °C); 0.073 AU in data set [1] (pH 8, 45 °C); 0.199 AU in data set [1] (pH 8.5). In addition, the “Proxy for plastic degradation” value worked out at 0.085 AU in data set [1] (pH 9.5) and 0.015 AU in data set [1] (pH 10.5).

B2: unnamed (protein)
chain: MLAVWDDTLAHPVRGRDRELATLTGLLDNTSGRRGTGMVVVGAPGTGKTTLLNALVEHAEGFQVLWAEGSAAESDVRFAGVEQLLRPLESLVSLLPDDRGRALRPVWGLPADDEGQVGSLAVPAAVSALLGLAARRQPVLCCVDSAHLLDSASLSALAFAARRAHHAGVVFVFAVDCTADTEVDTETSVWGELPRLRLGRLDDEAAHALLRDRLGASLPHDLADSLLDVGHGAPLALVELAESLTPEHLCGRAAPPSSPPPEGRLCRTLGHRLSALSEGAREVVALAGISEGLDEQLTCRVLPHHRSTLAEAVRSGLVVLDGDTVRTAADTVPSALLAALTPQDIVQAHHRMAEAAEAVGDRDRAVWHRAAIAMAPDPALVADLDDIAERARAAAAHATAAAASERAAALTSDTKERARRLVAAATDHWASGRPQRARTALRLAAPLSDSVLGARVSRLAGEIELRRGDPSVAATKLISTARQLASTHRTLAASALMLAGEASFVAGDNARYCLTAKDAALLCGPEEWPATRVVREHFTAMSATFRGEHSAAAAPLRSLVELGETTPDPTAKTLASQAAFTLGDAERSRDLALQAVVCARARGDESGVPWALVYAALSALLSGQLSAASTTALEGLQVARSLGQSNSAVDHVTVLAMLAALQGDEETALQRLQAANTELAERGLGRPSALATWAAACVDLAHDRPAEAFDRFRRMTVGRSRHCVPLRVMAVPHFVEAAVRCGEKEVARRSLVTFEHWANTTGGTARVALAHRCHALLAEQDGEAQERFTEAVRLHREADAPYDLAVTQLLYASHLRRSRRPKQARELLREAVQLFDDLGATHWVERASQELRACGHPGRGKPHLSRGLSPQQERIAQLVADGATNKEIATQLFISHRTVDHHLRNIFAKLDVRSRVQLAALFR
As to B2, the “Proxy for plastic degradation” value in data set [2] turned out to be 430.

B3: unnamed (protein)
chain: B2 chain with A233D
In the case of B3, in data set [2], the “Proxy for plastic degradation” value turned out to be 330.

B4: unnamed (protein)
chain: MGSSHHHHHHSSGLVPRGSHMRGPNPTAASLEASAGPFTVRSFTVSRPSGYGAGTVYYPTNAGGTVGAIAIVPGYTARQSSIKWWGPRLASHGFVVITIDTNSTLDQPSSRSSQQMAALRQVASLNGTSSSPIYGKVDTARMGVMGWSMGGGGSLISAANNPSLKAAAPQAPWDSSTNFSSVTVPTLIFACENDSIAPVNSSALPIYDSMSRNAKQFLEINGGSHSCANSGNSNQALIGKKGVAWMKRFMDNDTRYSTFACENPNSTRVSDFRTANCSLEDPAANKARKEAELAAATAEQ
Regarding B4, the “Proxy for plastic degradation” value in data set [3] (4 °C) turned out to be 100 µM; in data set [3] (16 °C) it was 410 µM; in data set [3] (30 °C), 1100 µM; in data set [3] (37 °C), 300 µM; in data set [3] (55 °C), 180 µM; in data set [3] (70 °C), 100 µM.
